Measured values taken from the supplement of paper PMC9732359.
± gives the uncertainty stated by the source.

Experiment: protein stability index of a GFP-peptide fusion (yeast GPS) (PSI 1-4); higher = more stable; sorted into four equal gates, so the index is relative within each strain
Conditions: doa10∆
Outline: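 Sequencing reads from sorted gates were used to score each peptide. The library consisted of tiled 17-residue yeast protein peptides fused downstream of GFP on a Cherry-expressing plasmid, pooled and carried in yeast. Mid-log cultures in leucine-free medium were split into four equal gates by GFP/Cherry ratio, and each gate's plasmids were PCR-amplified and Illumina-sequenced. The protein stability index adds up, over all gates, the read frequency multiplied by the gate number.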

Sequence | protein stability index
NTNELKEVSSFLMGIFN [MTR3] | 2.93 ± 0.067
NTNTENENRNTGAGVDV [SNF11] | 2.9 ± 0.062
NTQDLLLLLSLFKKITN [YML103C/NUP188] | 1.26 ± 0.038
NVFGTLQRHSGISSTLV [YLR018C/POM34] | 2.03 ± 0.09
NVNMTVNTMGTGGQTID [MED6] | 3.23 ± 0.3
NVNNNNIGQQQVKKPRK [SWI1] | 3.42 ± 0.12
NVPVHVSPAFRVQVGDI [RPS11A] | 2.69 ± 0.075
NVQLRDVIATEPQGAVT [SMD3] | 2.96 ± 0.069
NVRSVIRSSRSRGIVIG [RPP1] | 3 ± 0.076
NVVEIWVFSYLRWFELK [SIR3] | 1.31 ± 0.088
NVVGKLISIISSVIQNY [YML103C/NUP188] | 1.79 ± 0.073
NWAKFTATASLGVIHKG [RPN2] | 1.81 ± 0.06
NWRRLSGRNIHLAVVCV [SSN2] | 2.12 ± 0.085
NYGMIAINPGRVAASFS [FAS1] | 1.72 ± 0.1
NYILNFKQSNSETFLQF [CDC53] | 2.57 ± 0.13
NYLNDMHDSNLQNNSDS [SKP1] | 2.48 ± 0.12
NYSSESYRNAFTNVLTK [YJL039C/NUP192] | 2.56 ± 0.047
NYTQNIDNLESYAGIST [SIR2] | 2.92 ± 0.059
PADSTYGAYNTQIANAG [PRE4] | 1.8 ± 0.097
PAEVGRAIRSEKYGKQV [BRR2] | 3.27 ± 0.22
PAFSFGAKPEEKKDDNS [YJL041W/NSP1] | 3.27 ± 0.16
PAHTKYMLIEEAASSNK [ITC1] | 3.05 ± 0.12
PAHTVIIKGTDVYSPEK [BRR2] | 3.02 ± 0.055
PALVGKLRGDLREAPAD [SNF6] | 3.19 ± 0.21
PANAEPQAVTITSIMDD [ITC1] | 2.39 ± 0.11
PAQKDSSVVSEPKKPSF [YOR098C/NUP1] | 2.94 ± 0.061

Sequence | protein stability index
PDGTLIASAGKDGEIML [ASC1] | 3.06 ± 0.073
PDRHVIFLAERRILPKP [RPS7B] | 2.81 ± 0.18
PDVKSLVQLSTMETKTL [SIR4] | 2.92 ± 0.071
PEPSHIDQVMMSVSDND [RET1] | 2.43 ± 0.047
PFDQNLDSNNNNSNSNN [SWI1] | 2.65 ± 0.033
PFFSSNTSSLQSFQNPF [YIL149C/MLP2] | 2.93 ± 0.058
PFGAKSTKSNKAKNPLT [RPL8B] | 3.38 ± 0.094
PFGAKSTKSNKTRNPLT [RPL8A] | 2.73 ± 0.072
PFGVSTIFGGVDKNGAH [PRE10] | 3.06 ± 0.076
PFHSHLLVPASDLINKD [FAS1] | 1.83 ± 0.03
PFLHLRKKTPAGDWKYD [FAS2] | 3.2 ± 0.29
PFLLMELHKKLVEAAKL [YDL116W/NUP84] | 1.41 ± 0.11
PFLNETKPGVYYVPYSK [RPC82] | 3.09 ± 0.12
PFNKPNIETGENHNGQS [SWI3] | 3.3 ± 0.14
PFTDITVEGISKLLREH [RPB2] | 2.27 ± 0.076
PGDIVRAQVLSLGDGTN [CSL4] | 3.62 ± 0.24
PGGAASKSVPTPSLPIA [SNF5] | 2.9 ± 0.062
PGSSITETEVEREQPQE [SRB4] | 3.09 ± 0.093
PHDLIIGTADIFIRQLK [BRR2] | 2.11 ± 0.057
PIDIFQIIRRVKEMEPK [SIR3] | 3.1 ± 0.13
PIGRDGKLAKPRQLHNT [RPB2] | 2.89 ± 0.077
PILAPSVKDYRPAEETE [RPS3] | 3 ± 0.056
PIPDARNAALRAKAEAA [SCL1] | 2.39 ± 0.14
PKDKAIKRMAIRNIVEA [RPS26A] | 1.25 ± 0.068
PKEVDGLEVGPVVQVGI [IRR1] | 3.38 ± 0.11
PKFAIQDNHHITKVTEN [YMR129W/POM152] | 2.83 ± 0.052

Sequence | protein stability index
PKFGVEGLIRLDNLTED [DIS3] | 2.97 ± 0.074
PKGATYGKPTNQGVNEL [RPL15A] | 3.02 ± 0.1
PKHSYLSGNPLTSVTND [SIR4] | 2.67 ± 0.073
PKIDEDDTWYNLTEFVQ [AAR2] | 3.17 ± 0.088
PKILIREHERVILKQIL [SWP82] | 1.84 ± 0.081
PKWERVFLFDIEKVDRE [RRI2] | 2.4 ± 0.1
PKYESLKLEYYNLLVKI [RPN5] | 2.1 ± 0.084
PLAPAPINLPPQIAQLP [SNF5] | 1.8 ± 0.079
PLARNYIKSMDLISKKT [RPR2] | 2.78 ± 0.065
PLEKITDAYLDQYLWYE [PRP8] | 3.19 ± 0.13
PLFFVDLKLLFNTEAEQ [RGR1] | 2.73 ± 0.077
PLINLALIDTEFANFEL [YML103C/NUP188] | 2.71 ± 0.083
PLKFKLGPLSYQNMAFI [YJR042W/NUP85] | 2.42 ± 0.064
PLKIHRTPYLTSLKKIK [SWI1] | 1.81 ± 0.054
PLLLVGLDKFSNIDIRV [RPS16A] | 1.83 ± 0.073
PLPAVFSAPIRPDIVHT [RPL4A] | 1.96 ± 0.04
PLPSHALTVQEVLNRVA [YDL116W/NUP84] | 2.29 ± 0.039
PLSRINENENFGYDIPL [YML103C/NUP188] | 3.02 ± 0.12
PLSTYNKNGNAVCSTAT [PGD1] | 2.37 ± 0.096
PLYARYINVNPQEETIT [ECM29] | 2.74 ± 0.07
PLYVMDEIDAALDFRNV [SMC4] | 2.5 ± 0.059
PMHSIMPNSSLQPFYSQ [DSN1] | 2.12 ± 0.072
PNFLGNCNIKDFKPPYI [SWP82] | 2.62 ± 0.048
PNIHQNLLPKKSAKATK [HTA1] | 2.53 ± 0.093
PNKVKTEDIRIRAQNFK [RRP6] | 2.75 ± 0.061
PNTRDAESEAITVTAKQ [SWI3] | 3.08 ± 0.075

Sequence | protein stability index
PPQAGDRSLADDYDYVM [RPB8] | 3.23 ± 0.11
PPSLKIIDGPKALILAP [PRP28] | 1.62 ± 0.055
PQDDDSQSKMMSSQISS [MTR3] | 3.14 ± 0.074
PQEETITFLIEKAKEMI [ECM29] | 3.03 ± 0.092
PQFNSPYDSNNSNTNLN [SWI1] | 2.97 ± 0.054
PQLSKAGKFPTPVSHND [RPL1A] | 2.31 ± 0.04
PQMFLNQQAQARQQVAQ [GAL11] | 2.66 ± 0.15
PQTMEHYKQQIAVLIEL [YCS4] | 3.01 ± 0.083
PRETIPFLHLRKKTPAG [FAS2] | 2.73 ± 0.13
PRGLNSARKLRVHRRNN [RPS23A] | 2.39 ± 0.088
PRINNISAEDRADTDLA [SNF2] | 1.94 ± 0.15
PRQTKKAKAQAQAQAQA [PGD1] | 3.2 ± 0.077
PRSDDLEATWNFIEPGI [CDC53] | 3.04 ± 0.15
PRVSNQSNEDTFLPSYM [RRI2] | 3.07 ± 0.087
PSEFHCLQDALDAIDDF [SSN2] | 3.14 ± 0.1
PSIPLVIIRRLKTRDWI [POP1] | 2.72 ± 0.1
PSKGQSLSKISQAFDIV [RPP1] | 3.25 ± 0.095
PSLKDSSSNGGGSAKPS [RPC53] | 2.91 ± 0.18
PSLNKTINGKVNGRTKS [GAL11] | 3.06 ± 0.14
PSNFEINAEEIVDFTLP [PRP8] | 2.91 ± 0.083
PSNSTTTLHGPGFQLPN [SRB8] | 3 ± 0.1
PSPYKTTVYRYSAAKKI [YAR002W/NUP60] | 1.69 ± 0.051
PSRTRETATSERNASEV [GRR1] | 3.32 ± 0.15
PSSLNSDKIPYVAPTKK [SRB4] | 2.24 ± 0.073
PSTRCKLKLLRMERIKD [RPT2] | 1.6 ± 0.045
PSVKRQKMAELEAARSE [PRP8] | 3.31 ± 0.1
